# Laboratory results as given in the nanobody polyreactivity screen of Harvey et al. (2022).
# Test: yeast display, Sf9 membrane polyspecificity reagent, FACS + sequencing; frameworks hold sequencing errors
# In short: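 Nanobodies came from a synthetic yeast display library in Saccharomyces cerevisiae BJ5465, induced with galactose for 36–48 hours and stained for 1 hour at 4 °C with 10% biotinylated, detergent-solubilized Sf9 membrane reagent. Cells were enriched on streptavidin microbeads and then FACS-sorted, with low and high (top ~1%) gates set on anti-HA fluorescence for expression and streptavidin fluorescence for reagent binding. Each polyreactivity label reflects the gate a clone came from. Genes were amplified by colony PCR, sequenced by MiSeq 2 × 250 and filtered by CDR length.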
row,Sequence,polyreactivity (PSR sort gate)
1,QVQLVESGGGLVQAGGSLRLSCAASGFIFYAYAMGWYRQAPGKERELVAAITSSGSRTYYADSVKGRFTISRDNAKNTVYLQMNSLKPEDTAVYYCNARSGGVRYSNIGTEKYDYWGQGTQVTVSS,low polyreactivity
2,QVQLVESGGGLVQAGGSLRLSCAASGFIFYAYAMGWYRQAPGKERELVAGISDSGASTYADSVKGRFTISRDNAKNTVYLQMNSLKPEDTAVYYCATTGYLSTKVYDEYGYWGQGTQVTVSS,low polyreactivity
3,QVQLVESGGGLVQAGGSLRLSCAASGFIFYDYAMGWYRQAPGKEREMVAGITDSGGSTSYADSVKGRFTISRDNAKNTVYLQMNSLKPEDTAVYYCAADNYVRAGINYDYWGQGTQVTVSS,low polyreactivity
4,QVQLVESGGGLVQAGGSLRLSCAASGFIFYDYDMGWYRPAPGKERELVAAITYSGGSTYYADSVKGRFTISRDNAKNTVYLQMNSLKPEDTAVYYCAAVKSRYAEAVDYYYWGQGTQVTVSS,low polyreactivity
5,QVQLVESGGGLVQAGGSLRLSCAASGFIFYDYDMGWYRQAPGKERELVAAITYSGGSTYYADSVKGRFTISRDNAKNSVYLQMNSLKPEDTAVYYCAAVKSRYAEAVDYYYWGQGTQVNVSS,low polyreactivity
6,QVQLVESGGGLVQAGGSLRLSCAASGFIFYEYDMGWYRQAPGKEGELVAAISVSGGSTYYADSVKGRFTISRDNAKNTVYLQMNSLKPEDTAVYYCAVFLPDYGRYDYWGQGTQVTVSS,low polyreactivity
7,QVQLVESGGGLVQAGGSLRLSCAASGFIFYFYAMGWYRQAPGKERELVAAISYNGGSTYYADSVKGRFTISRDNAKNTVYLQMNSLKPEDTAVYYCNAVRNYAWGKMYSWGQGTQVTVSS,high polyreactivity
8,QVQLVESGGGLVQAGGSLRLSCAASGFIFYKNAMGWYRQAPGKERELVAAINWSGGSTYYADSVKGRFTISRDNAKNTVYLQMNSLKPEDTAVYYCAVVVYSGYRHYYWGQGTQVTVSS,high polyreactivity
9,QVQLVESGGGLVQAGGSLRLSCAASGFIFYKYAMGWYRQAPGKERELVAAISRSGSTYYADSVKGRFTISRDNAKNTVYLQMNSLKPDDTAVYYCNALTYFKRSEYYWGQGTQVTVSS,high polyreactivity
10,QVQLVESGGGLVQAGGSLRLSCAASGFIFYKYAMGWYRQAPGKERELVARISISGGRTYYADSVKGRFPISRDNAKNTVYLQMNSLKPEDTAVYYCATSPWWYGYAAYGMDYWGQGTQVTVSS,low polyreactivity
11,QVQLVESGGGLVQAGGSLRLSCAASGFIFYLNAMGWYRQAPGKERELVAAISRGGTTYYADSVKGRFTISRDNAKNTVYLQMNSLIPEDTAVYYCAAKDKRWYSRYYWTGYDYWGQGTQVTVSS,high polyreactivity
12,QVQLVESGGGLVQAGGSLRLSCAASGFIFYPYAMGWYRQAAGKERELVASIRRSTASTYYADSVKGRFTISRDNAKNTVYLQMNSLKPEDTAVYYCAARYRSYPKEYDYWGQGTEVTVSS,high polyreactivity
13,QVQLVESGGGLVQAGGSLRLSCAASGFIFYPYAMGWYRQAPGKERELVAAITGSGGSTYYADSVKGRFTISRDNAKNTVYLQMNSLKPEDTAVYYCAAYYGPRKMDYWGQGTQVTVSS,high polyreactivity
14,QVQLVESGGGLVQAGGSLRLSCAASGFIFYPYAMGWYRQAPGKERELVAVITSGGRTYYADSVKGRFTISRDNAKNTVYLQMNSLKPEDTAVYYCAARYGRIQWKANWPEYGYWGQGTQVTVSS,low polyreactivity
15,QVQLVESGGGLVQAGGSLRLSCAASGFIFYPYVMGWYRQAPGKERELVATIRTDGRTSYADSVKGRFTISRDNAKNTVYLQMNSLKPEDTAVYYCNTKYVRYYRRYDSWGQGTQVTVSS,high polyreactivity
16,QVQLVESGGGLVQAGGSLRLSCAASGFIFYQYAMGWYRQAPGKERELVAAISRRGGGTYYADSVKGRFTISRDNAKNTVYLQMNSLKPEDTAVYYCNTDRLARITFGGYDYWGQGTQVTVSS,high polyreactivity
17,QVQLVESGGGLVQAGGSLRLSCAASGFIFYRNAMGWYRQAPGKERELVAAISGSGGRTYYADSVNGRFTISRDNAKNTVYLQMNSLNPEDTAVYYCNAGLLYRGEYDYWGQGTQVTVSS,high polyreactivity
18,QVQLVESGGGLVQAGGSLRLSCAASGFIFYRNTMGWYRQAPGKERELDAAISWSGARTYYADSVKGRFTISRDNAKNTVYLQMNSLKPEDTAVYYCNTVFYLHSTTTNGDYWGQGTQVTVSS,high polyreactivity
19,QVQLVESGGGLVQAGGSLRLSCAASGFIFYRWYALGWYIQAPGKERELVAAIRSGGSTYYADSVKGRFTISRDNAKNTVYLQMNSLKPEDTAVYYCSTSGPQYYSRHFDYWGEGTQVTVSS,low polyreactivity
20,QVQLVESGGGLVQAGGSLRLSCAASGFIFYRYAMGWYRPAPGKERELVAAISRSGGTTYYADSVKGRFTISRDNAKNTVYLQMNSLKPEDTAVYYCNVKRGTIGGYYYWGQGTQVTVSS,high polyreactivity
21,QVQLVESGGGLVQAGGSLRLSCAASGFIFYRYAMGWYRQAPGKERELVAAISKSGSSTYYADSVKGRFTISRDNAKNTVYLQMNSLKPEDTAVYYCARDRQSRSLLEYDYWGQGTQVTVSS,low polyreactivity
22,QVQLVESGGGLVQAGGSLRLSCAASGFIFYRYAMGWYRQAPGKERELVAAISWGGGSTTYYADSVKGRFTISRDNAKNTVYLQMNRLKPEDTAVYYCAAYIGKGYGSEYYYWGQGTQVTVSS,low polyreactivity

row,Sequence,polyreactivity (PSR sort gate)
1,QVQLVESGGGLVQAGGSLRLSCAASGFIFYRYAMGWYRQAPGKERELVAVISGSGGRTYYADSVKGRFTISRDNAKNTVYLQMNSLKPEDTAVYYCAAVTRRRYYGHIYGYWGQGTQVTVSS,high polyreactivity
2,QVQLVESGGGLVQAGGSLRLSCAASGFIFYRYPMGWYRQAPGKERELVAAISYSGGSTYYADSVKGRFTISRDNAKNTVYLQMNSLKQEDTAVYYCARRQVYKFRRYDYWGQGTQVTVSS,high polyreactivity
3,QVQLVESGGGLVQAGGSLRLSCAASGFIFYRYVMGWYRQAPGKERELVAAITWSGGSTYYADSVKGRFTISRDNAKNTVYLQMNSLKPEDTAGNYCAAEWWLPSFGMDYWGQGTQVTVSS,low polyreactivity
4,QVQLVESGGGLVQAGGSLRLSCAASGFIFYRYVMGWYRQAPGKERELVAAITWSGGSTYYADSVKGRFTISRDNAKNTVYLQMNSLKPEDTAVYYCAAEWWLPSFGMDYWGQGTQVTVSS,low polyreactivity
5,QVQLVESGGGLVQAGGSLRLSCAASGFIFYSKAMGWYRQAPGKERELVAAISWGGGRTYYADSVKGRFTISRDNAKNTVYLQMNSLKPEDTAVYYCAAPWRRIGYSTRGYTLYDYWGQGTQVTVSS,high polyreactivity
6,QVQLVESGGGLVQAGGSLRLSCAASGFIFYSNAMGWYRQAPGKERELVAAISRRGGSTYYADSVKGRFTISRDNAKNTVYLQMNSLKPEDTAVYYCAATFKSGMDYWGQGTQVTVSS,high polyreactivity
7,QVQLVESGGGLVQAGGSLRLSCAASGFIFYSNDMGWYRQAPGKERELVAAITSSGGSTYYADSVKGRFTISRDNAKNTVYLQMNSLKPEDTAVYYCNADCTTFGLYSWGQGTQVTVSS,low polyreactivity
8,QVQLVESGGGLVQAGGSLRLSCAASGFIFYSYAMGWYRQAPGKERELVAAITEDGDSTYYADSVKGRFTISRDNAKNTVYLQMNSLKPEDTAVYYCNTDLTFNGTSGDYDYWGQGTQVTVSS,low polyreactivity
9,QVQLVESGGGLVQAGGSLRLSCAASGFIFYSYTMVWYRQAPGKERELVASISRRGGITYYADSVKGRFTISRDNAKNTVYLQMNILIPEDTAVFYCAAYSWRRQGDHYDYWGQGTKVTVSS,high polyreactivity
10,QVQLVESGGGLVQAGGSLRLSCAASGFIFYTYAIGWYRQAHGKERELVAAISRGGRTNYADSVKGRFTISRDNAKNSVYLQMNSLKPEDPAVYYCPSSYSHRYDYWGQGTQVTVSS,high polyreactivity
11,QVQLVESGGGLVQAGGSLRLSCAASGFIFYTYAMGWYIQAPGKERELVAAINTSGSTTNYADSVKGRFTISRDNAKNTVYLQMNSLKPEDTAVYYCAAEWNVSPYDYWGQGTQVTVSS,low polyreactivity
12,QVQLVESGGGLVQAGGSLRLSCAASGFIFYVKAMGWYRKAPGKERELVASITNGGSTTYADSVKGRFTISRDNAKNTDDLQMNSLKPEDTAVYYCHASGLDFSYFDEFNYWGQGTQVTVSS,low polyreactivity
13,QVQLVESGGGLVQAGGSLRLSCAASGFIFYYNAMGWYRPAPGTERELVATINNDGGSSTYADSVKGRFTISRDNAKNTVYLQMNSLKPEDTAVYYCNAEAFYFTHTVWIPYYYWGQGTQVTVLS,low polyreactivity
14,QVQLVESGGGLVQAGGSLRLSCAASGFIFYYNAMGWYRQAPGKERELVAAISSSAGSTYYADSVKGRFTISRDNAKNTVYLQMNSLKPEDTAVYYCNADSSYRTIDSASDYDYWGQGTQVTVSS,low polyreactivity
15,QVQLVESGGGLVQAGGSLRLSCAASGFIFYYNAMVWYRQAPGKERELVAAITDDGGGTYYADSVKGRFTISRDNAKNTVYLQMNSLKPEDTAVYYCAADGYNYEHDYWGQGTQVTVSS,low polyreactivity
16,QVQLVESGGGLVQAGGSLRLSCAASGFIFYYYAMGWYRQAPGKERELVAAITGSGGNTYYADSVKGRFTISRDNEKNSVFFHMNSLKPEDTAVYYCNTGYDRGGDYWGQGTQVTVSS,high polyreactivity
17,QVQLVESGGGLVQAGGSLRLSCAASGFIFYYYAMGWYRQAPGKERELVAGIDKTGGSTYYADSVKGRFTISRDNAKNTVYFQMNSLKPEDTAVYYCAAGYFFPRLRFRNYAYVYWGQGTQVTVSS,high polyreactivity
18,QVQLVESGGGLVQAGGSLRLSCAASGFIFYYYAMGWYRQAPGKERELVAVLAVSGSSTYYADSEKGRFTISRDNAKNIVFLQKNSLKPEDTAVYYCNADFWPYTGKYDYWGQGTQVTVSS,low polyreactivity
19,QVQLVESGGGLVQAGGSLRLSCAASGFIFYYYAMGWYRQATGKERELDASISSDGSTYYADSVKGRFTISRDNAKNTVYLQMNSLKPEDTAVYYCNADRYYPDDLSDGVGTYDYWGQGTQVTVSS,low polyreactivity
20,QVQLVESGGGLVQAGGSLRLSCAASGFIIAQYAMGWYRQAPGKERELVAGITSTGSTNYADSVKGRFTISRDNAKNTVYLQMNSLKPEDTAVYYCNTDYITASAVFDYDYWGQDTQVTVSS,low polyreactivity
21,QVQLVESGGGLVQAGGSLRLSCAASGFIIAYYAMGWYRQAPGKERELVAAISRRGGSTYYADSVKGRFTISRDNAKNTVYLQMNSLKPEDTAVYYCAKAHYLSDYNYWGQGTQVTVSS,high polyreactivity
